Data on 3 molecules can be found in paper doi:10.1101/2022.09.09.507346 (bioRxiv, 2022).

Assay [1] concerns the target T1, MBP-GLK1 fusion protein (Golden2-like transcription factor GLK1, full length) (Arabidopsis thaliana, UniProt Q9SIV3 1-420).
T1 sequence (looked up): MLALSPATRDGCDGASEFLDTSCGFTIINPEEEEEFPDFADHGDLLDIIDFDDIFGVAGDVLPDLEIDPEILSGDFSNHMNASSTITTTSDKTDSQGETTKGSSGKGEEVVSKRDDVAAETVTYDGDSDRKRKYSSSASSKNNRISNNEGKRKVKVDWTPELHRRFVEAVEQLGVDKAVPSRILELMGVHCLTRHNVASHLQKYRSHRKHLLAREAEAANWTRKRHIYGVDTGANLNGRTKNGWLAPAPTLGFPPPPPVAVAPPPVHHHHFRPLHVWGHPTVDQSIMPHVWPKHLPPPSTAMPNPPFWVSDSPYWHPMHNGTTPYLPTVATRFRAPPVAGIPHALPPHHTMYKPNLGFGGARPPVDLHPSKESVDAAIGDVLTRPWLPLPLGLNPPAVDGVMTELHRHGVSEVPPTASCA
The assay is described as follows: pull-down.

Assay [2] addresses T2, MBP-GLK2 fusion protein (Golden2-like transcription factor GLK2, full length) (Arabidopsis thaliana, UniProt Q9FFH0 1-386).
T2 sequence (looked up): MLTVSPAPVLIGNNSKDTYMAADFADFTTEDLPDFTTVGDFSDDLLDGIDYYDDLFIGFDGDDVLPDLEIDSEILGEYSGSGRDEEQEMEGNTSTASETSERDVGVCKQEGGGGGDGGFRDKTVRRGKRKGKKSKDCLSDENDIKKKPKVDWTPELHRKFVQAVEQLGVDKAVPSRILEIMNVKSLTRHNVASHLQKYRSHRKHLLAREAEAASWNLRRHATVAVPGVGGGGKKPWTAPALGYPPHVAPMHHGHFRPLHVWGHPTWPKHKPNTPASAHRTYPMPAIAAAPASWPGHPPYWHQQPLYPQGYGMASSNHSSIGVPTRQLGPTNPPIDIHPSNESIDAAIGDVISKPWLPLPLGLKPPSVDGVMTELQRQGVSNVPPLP
The assay is described as follows: pull-down.

B1: GST-GBF2 fusion protein (G-box Binding Factor 2, full length) (natural protein, Arabidopsis thaliana, UniProt P42775 1-360, looked up)
chain: MGSNEEGNPTNNSDKPSQAAAPEQSNVHVYHHDWAAMQAYYGPRVGIPQYYNSNLAPGHAPPPYMWASPSPMMAPYGAPYPPFCPPGGVYAHPGVQMGSQPQGPVSQSASGVTTPLTIDAPANSAGNSDHGFMKKLKEFDGLAMSISNNKVGSAEHSSSEHRSSQSSENDGSSNGSDGNTTGGEQSRRKRRQQRSPSTGERPSSQNSLPLRGENEKPDVTMGTPVMPTAMSFQNSAGMNGVPQPWNEKEVKREKRKQSNRESARRSRLRKQAETEQLSVKVDALVAENMSLRSKLGQLNNESEKLRLENEAILDQLKAQATGKTENLISRVDKNNSVSGSKTVQHQLLNASPITDPVAAS
For the molecule B1, the binding result in assay [1] and in assay [2] was “binds” each time.

B2: GST-GBF1 fusion protein (G-box Binding Factor 1, full length) (natural protein, Arabidopsis thaliana, UniProt P42774 1-315, looked up)
chain: MGTSEDKMPFKTTKPTSSAQEVPPTPYPDWQNSMQAYYGGGGTPNPFFPSPVGSPSPHPYMWGAQHHMMPPYGTPVPYPAMYPPGAVYAHPSMPMPPNSGPTNKEPAKDQASGKKSKGNSKKKAEGGDKALSGSGNDGASHSDESVTAGSSDENDENANQQEQGSIRKPSFGQMLADASSQSTTGEIQGSVPMKPVAPGTNLNIGMDLWSSQAGVPVKDERELKRQKRKQSNRESARRSRLRKQAECEQLQQRVESLSNENQSLRDELQRLSSECDKLKSENNSIQDELQRVLGAEAVANLEQNAAGSKDGEGTN
For the molecule B2, the binding result in assay [1] and in assay [2] was “binds” throughout.

B3: GST-GBF3 fusion protein (G-box Binding Factor 3, full length) (natural protein, Arabidopsis thaliana, UniProt P42776 1-382, looked up)
chain: MGNSSEEPKPPTKSDKPSSPPVDQTNVHVYPDWAAMQAYYGPRVAMPPYYNSAMAASGHPPPPYMWNPQHMMSPYGAPYAAVYPHGGGVYAHPGIPMGSLPQGQKDPPLTTPGTLLSIDTPTKSTGNTDNGLMKKLKEFDGLAMSLGNGNPENGADEHKRSRNSSETDGSTDGSDGNTTGADEPKLKRSREGTPTKDGKQLVQASSFHSVSPSSGDTGVKLIQGSGAILSPGVSANSNPFMSQSLAMVPPETWLQNERELKRERRKQSNRESARRSRLRKQAETEELARKVEALTAENMALRSELNQLNEKSDKLRGANATLLDKLKCSEPEKRVPANMLSRVKNSGAGDKNKNQGDNDSNSTSKLHQLLDTKPRAKAVAAG
In the case of B3, the binding result in assay [1] and in assay [2] was “binds” each time.
